Measurements from paper PMC7954794, “Protein context shapes the specificity of SH3 domain-mediated interactions in vivo” (Nature Communications, 2021).

B1: S. cerevisiae Abp1 (full length; SH3 domain 535-592 mutated) / Hua2 (parent)
chain 1: MALEPIDYTTHSREIDAEYLKIVRGSDPDTTWLIISPNAKKEYEPESTGSSFHDFLQLFDETKVQYGLARVSPPGSDVEKIIIIGWCPDSAPLKTRASFAANFAAVANNLFKGYHVQVTARDEDDLDENELLMKISNAAGARYSIQTSSKQQGKASTPPVKKSFTPSKSPAPVSKKEPVKTPSPAPAAKISSRVNDNNDDDDWNEPELKERDFDQAPLKPNQSSYKPIGKIDLQKVIAEEKAKEDPRLVQKPTAAGSKIDPSSDIANLKNESKLKRDSEFNSFLGTTKPPSMTESSLKNDDDKVIKGFRNEKSPAQLWAERKAKQNSGNAETKAEAPKPEVPEDEPEGEPDVKDLKSKFEGLAASEKEEEEMENKFAPPPKKSEPTIISPKPFSKPQEPVKAEEAEQPKTDYKKIGNPLPGMHIEADNEEEPEENDDDWDDDEDEAAQPPLPSRNVASGAPVQKEEPEQEEIAPSLPSRNSIPAPKQEEAPEQAPEEEIEEEAEEAAPQLPSRSSAAPPPPPRRATPEKKPKENPWATAEYDYDAAEDNELTFVENDKIINIEFVDDDWWLGELEKDGSKGLFPSNYVSLGN
chain 2: MQQTKFGKMYLDHDSVVEYSEDEIVEADRITLGYKKRLSMIENQMRHLLEDFSLDVQQIEPILADLQKYYDAFLQLLQKRNKSLQCKRSTHQPVPSPMNSQTSTNAKVNLSGKLMKFQLNSVQKFDEENILRILQNKIEFEHYFQIDKGKKQKVLLLAVYQCLNGPTRLHKVLNIEGIIHNNSIRTILGKQVSSSKWTVFLYDVKLVLLAHRQDVPNLETSKMIVRYGDLFPCALYFKDHTAY

Variants of: B1
Experiment: DHFR protein-fragment complementation in yeast (Abp1-DHFR F[1,2] x partner-DHFR F[3]), deep mutational scanning, second methotrexate selection vs reference
Settings: with Hua2; S. cerevisiae, DHFR-PCA selection in liquid with methotrexate at 30 C, two 72 h selections (the score uses the second); reference = the pre-selection culture; not an affinity; scale: DMS score: mean over two replicates of log2(f_test/f_ref + 0.5)/ln 2, minus the synonymous-codon median

Row | Variant | screen value
1 | chain 1 K558G | -2.62
2 | chain 1 E540F | -2.97
3 | chain 1 L590H | -2.44
4 | chain 1 L590E | -2.84
5 | chain 1 L590A | -2.75
6 | chain 1 L590C | -2.24
7 | chain 1 I562N | -1.85
8 | chain 1 I562C | -2.84
9 | chain 1 I562S | -2.46
10 | chain 1 I562M | -1.57
11 | chain 1 I562T | -2.61
12 | chain 1 I562W | -2.85
13 | chain 1 I562F | -2.51
14 | chain 1 D566V | -2.75
15 | chain 1 E573G | -2.56
16 | chain 1 E573L | -2.11
17 | chain 1 E573R | -1.65
18 | chain 1 E573A | -1.17
19 | chain 1 E573D | -1.16
20 | chain 1 E573K | -1.32
21 | chain 1 E573W | -2.52
22 | chain 1 D542V | -1.37

Row | Variant | screen value
23 | chain 1 D542I | -2.41
24 | chain 1 D542L | -1.84
25 | chain 1 D542Y | -1.41
26 | chain 1 D542W | -1.61
27 | chain 1 K580D | -2.63
28 | chain 1 K580W | -1.55
29 | chain 1 K580G | -2.39
30 | chain 1 K580Y | -1.88
31 | chain 1 F564W | -2.35
32 | chain 1 F564L | -1.7
33 | chain 1 F564T | -2.07
34 | chain 1 F564D | -2.53
35 | chain 1 F564N | -2.93
36 | chain 1 F564V | -2.3
37 | chain 1 F564I | -1.74
38 | chain 1 F564G | -2.97
39 | chain 1 F564A | -2.55
40 | chain 1 F564S | -2.74
41 | chain 1 F564C | -1.62
42 | chain 1 I559M | -1.42
43 | chain 1 I559T | -2.21
44 | chain 1 I559F | -1.21

Row | Variant | screen value
45 | chain 1 I559N | -2.48
46 | chain 1 I559S | -1.61
47 | chain 1 D568C | -2.91
48 | chain 1 D577Y | -2.59
49 | chain 1 D577K | -2.12
50 | chain 1 D577V | -2.26
51 | chain 1 D577E | -1.09
52 | chain 1 D577M | -2.7
53 | chain 1 D577H | -2.21
54 | chain 1 D577Q | -2.41
55 | chain 1 D577L | -2.96
56 | chain 1 D577W | -2.9
57 | chain 1 D577N | -2.24
58 | chain 1 D577G | -1.18
59 | chain 1 D577R | -2.77
60 | chain 1 D577A | -1.59
61 | chain 1 E563G | -1.92
62 | chain 1 E563W | -2.93
63 | chain 1 E563F | -1.96
64 | chain 1 E563M | -1.5
65 | chain 1 E563L | -1.4
66 | chain 1 E563Y | -2.45

Row | Variant | screen value
67 | chain 1 F553C | -2.38
68 | chain 1 F553Y | -2.41
69 | chain 1 F553V | -1.32
70 | chain 1 F553S | -2.83
71 | chain 1 E575F | -1.16
72 | chain 1 E575T | -1.44
73 | chain 1 E575R | -1.6
74 | chain 1 E575G | -1.41
75 | chain 1 E575P | -1.33
76 | chain 1 E575N | -1.15
77 | chain 1 A546P | -2.02
78 | chain 1 D557G | -2.9
79 | chain 1 D557M | -2.77
80 | chain 1 D557A | -2.31
81 | chain 1 D557K | -2.91
82 | chain 1 D557V | -2.87
83 | chain 1 D557N | -1.63
84 | chain 1 D557C | -2.97
85 | chain 1 D557S | -2.41
86 | chain 1 D557Y | -2.77
87 | chain 1 L571G | -1.24
88 | chain 1 L571P | -2.25

Further lines, results first:

Row | screen value | Variant
89 | -2.52 | chain 1 P584L
90 | -2.12 | chain 1 P584H
91 | -2.94 | chain 1 P584R
92 | -2.56 | chain 1 P584S
93 | -2.85 | chain 1 P584A
94 | -2.19 | chain 1 P584T
95 | -1.58 | chain 1 W536I
96 | -2.87 | chain 1 W536P
97 | -1.76 | chain 1 W536K
98 | -1.66 | chain 1 W536L
99 | -2.23 | chain 1 W536G
100 | -1.23 | chain 1 W536N
101 | -1.97 | chain 1 W536D
102 | -1.3 | chain 1 W536A
103 | -1.3 | chain 1 W536R
104 | -1.2 | chain 1 L590W
105 | -2.85 | chain 1 L590R
106 | -2.63 | chain 1 L590S
107 | -2.55 | chain 1 L590T
108 | -1.64 | chain 1 L590Y

Row | screen value | Variant
109 | -2.62 | chain 1 L590Q
110 | -2.78 | chain 1 L590K
111 | -1.72 | chain 1 L590P
112 | -1.66 | chain 1 Y587W
113 | -2.81 | chain 1 Y587Q
114 | -1.43 | chain 1 Y587N
115 | -2.16 | chain 1 Y587D
116 | -1.97 | chain 1 N561I
117 | -1.4 | chain 1 N561G
118 | -2.22 | chain 1 N561C
119 | -1.98 | chain 1 N561Q
120 | -2.5 | chain 1 N561Y
121 | -2.28 | chain 1 N561S
122 | -2.12 | chain 1 N561R
123 | -2.29 | chain 1 N561A
124 | -2.43 | chain 1 N561M
125 | -1.17 | chain 1 N561E
126 | -1.97 | chain 1 N561T
127 | -2.13 | chain 1 V588T
128 | -2.87 | chain 1 V588F

Row | screen value | Variant
129 | -2.8 | chain 1 V588W
130 | -2.23 | chain 1 V588G
131 | -1.92 | chain 1 V588M
132 | -2.59 | chain 1 V588I
133 | -2.95 | chain 1 V588D
134 | -1.52 | chain 1 V588A
135 | -2.04 | chain 1 V588E
136 | -2.21 | chain 1 V588L
137 | -2.96 | chain 1 N556V
138 | -2.97 | chain 1 N556P
139 | -2.52 | chain 1 N556I
140 | -1.22 | chain 1 N556W
141 | -1.12 | chain 1 S589Y
142 | -2.38 | chain 1 S589P
143 | -2.67 | chain 1 Y543S
144 | -1.79 | chain 1 Y543N
145 | -2.15 | chain 1 Y543C
146 | -2.96 | chain 1 Y543K
147 | -2.57 | chain 1 Y543D
148 | -2.77 | chain 1 Y543Q

Same assay, conditions: with Hua2; S. cerevisiae, DHFR-PCA selection in liquid with methotrexate at 30 C, two 72 h selections (the score uses the second); reference = the pre-selection culture; not an affinity; value at the no-binding floor (a bound); scale: DMS score: mean over two replicates of log2(f_test/f_ref + 0.5)/ln 2, minus the synonymous-codon median

Row | screen value | Variant
149 | -3 | chain 1 E540P
150 | < -3.06 | chain 1 D566L
151 | < -3.06 | chain 1 D566P
152 | < -3.06 | chain 1 D566W
153 | < -3.06 | chain 1 D566I
154 | < -3.06 | chain 1 E573P
155 | < -3.06 | chain 1 D568P
156 | < -3.06 | chain 1 D577P
157 | -2.99 | chain 1 D577I
158 | -2.98 | chain 1 D577F
159 | -3.04 | chain 1 E563P
160 | -3.03 | chain 1 F553A
161 | < -3.06 | chain 1 F553E
162 | < -3.06 | chain 1 F553D
163 | < -3.06 | chain 1 D557W
164 | < -3.06 | chain 1 D557I
165 | < -3.06 | chain 1 D557R
166 | < -3.06 | chain 1 D557F
167 | < -3.06 | chain 1 D557L
